Target: T1, IiWRKY34 (Isatis indigotica, UniProt A0A6G8R7I5 1-302)
T1 sequence: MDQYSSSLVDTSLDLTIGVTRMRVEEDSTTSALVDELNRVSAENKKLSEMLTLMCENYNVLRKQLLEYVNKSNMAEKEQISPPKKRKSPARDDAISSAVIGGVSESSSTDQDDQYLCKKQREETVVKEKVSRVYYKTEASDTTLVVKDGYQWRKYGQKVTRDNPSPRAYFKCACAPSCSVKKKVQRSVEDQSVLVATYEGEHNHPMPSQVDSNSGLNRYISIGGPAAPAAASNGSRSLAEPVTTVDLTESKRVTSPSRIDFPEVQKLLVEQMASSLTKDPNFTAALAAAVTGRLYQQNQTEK
Test: EMSA

B1: Ii4CL3 promoter mutated W-box probe (Ii4CL3mpF/mpR) (dsDNA)
DNA 1: TCCGATTTTTTTCATAATTAATTTGAAATGTGCGGTTGATTTTTTTCCAA
DNA 2: TTGGAAAAAAATCAACCGCACATTTCAAATTAATTATGAAAAAAATCGGA
- binding result: no binding
